Test results: PMC5335569, “Biophysical studies suggest a new structural arrangement of crotoxin and provide insights into its toxic mechanism” (Scientific Reports, 2017)

Target: the molecule itself
Experiment: small angle X-ray scattering

B1: Crotoxin B (enzyme)
chain: HLLQFNKMIKFETRKNAVPFYAFYGCYCGWGGQGRPKDATDRCCFVHDCCYGKLAKCNTKWDIYRYSLKSGYITCGKGTWCEEQICECDRVAAECLRRSLSTYKNGYMFYPDSRCRGPSETC
  stoichiometry N: 4
